Measurements from IntAct's records for PubMed 22056770.

B1: Flagellar biosynthesis protein FlhF (Bacillus subtilis), Q01960 (parent)
chain: MKIKKFTAASMQEAALLIRKELGNEAVILNSKKIKKRKWFGLVNKPAVEVIAVLDQDFLEKKTPQKAAEPKQTLKTPVSSPKIEERTYPPQIPAQQELGDFSAYQSVLPEPLRKAEKLLQETGIKESTKTNTLKKLLRFSVEAGGLTEENVVGKLQEILCDMLPSADKWQEPIHSKYIVLFGSTGAGKTTTLAKLAAISMLEKHKKIAFITTDTYRIAAVEQLKTYAELLQAPLEVCYTKEEFQQAKELFSEYDHVFVDTAGRNFKDPQYIDELKETIPFESSIQSFLVLSATAKYEDMKHIVKRFSSVPVNQYIFTKIDETTSLGSVFNILAESKIGVGFMTNGQNVPEDIQTVSPLGFVRMLCR
partner: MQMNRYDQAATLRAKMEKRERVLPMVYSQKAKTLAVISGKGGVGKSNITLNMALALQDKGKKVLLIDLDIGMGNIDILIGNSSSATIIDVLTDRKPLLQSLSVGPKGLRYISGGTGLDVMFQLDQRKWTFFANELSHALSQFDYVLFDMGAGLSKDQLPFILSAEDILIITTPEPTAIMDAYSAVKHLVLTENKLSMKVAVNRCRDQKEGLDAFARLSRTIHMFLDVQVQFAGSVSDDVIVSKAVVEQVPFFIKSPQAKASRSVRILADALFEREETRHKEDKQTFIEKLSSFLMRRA
B2: Flagellum site-determining protein YlxH (Bacillus subtilis), P40742 (parent)
chain: B1 partner
partner: B1 chain

Variants of: B1
Conditions: with ylxh_bacsu ylxH

Variant | effect of a mutation on the interaction
R216A | disrupting interaction

Variants of: B2
Conditions: with flhf_bacsu flhF

Variant | effect of a mutation on the interaction
Q8A | disrupting interaction
